{"source": "paper PMC8240473", "about": "(DNA repair, 2020)", "molecules": {"B1": {"name": "N-terminally biotinylated peptide containing PIP2 of pol η (peptide)", "chain": "{Biotin-Ahx}-ESSKNLSFGEKRLLFSRKRP"}, "B2": {"name": "N-terminally biotinylated peptide containing PIP1 of pol η (peptide)", "chain": "{Biotin-Ahx}-QKKQVTSSKNILSFFTRKK"}, "B3": {"name": "Rad6-Rad18 complex, purified (complex, yeast)", "chain 1": "MDHQITTASDFTTTSIPSLYQLDTLLRCHICKDFLKVPVLTPCGHTFCSLCIRTHLNNQPNCPLCLFEFRESLLRSEFLVSEIIQSYTSLRSSLLDALRIPKPTPVPENEEVPGPENSSWIELISESESDSVNAADDDLQIVATSERKLAKRSMTDILPLSSKPSKRNFAMFRSERIKKKSKPNEQMAQCPICQQFYPLKALEKTHLDECLTLQSLGKKPKISTTFPTESNPHNKSSSRFKVRTPEVDKSSCGETSHVDKYLNSMMSAEHQRLPKINFTSMTQSQIKQKLSSLGLSTNGTRQNMIKRYNHYEMLWNSNFCDSLEPVDEAELKRQLLSWDVSHNKTPQNSSNKGGISKLMIMKSNGKSSSYRKLLENFKNDKFNRKGWMVMFRKDFARLIREAKMKIKTGSSDSSGSVGHSNDGDGVEKVQSDQGTEDQQMEKDQDTVINEDRVAGERNLPNEDSTDADLSRELMDLNEYSKDPPGNN", "chain 2": "MSTPARRRLMRDFKRMKEDAPPGVSASPLPDNVMVWNAMIIGPADTPYEDGTFRLLLEFDEEYPNKPPHVKFLSEMFHPNVYANGEICLDILQNRWTPTYDVASILTSIQSLFNDPNPASPANVEAATLFKDHKSQYVKRVKETVEKSWEDDMDDMDDDDDDDDDDDDDEAD"}, "B4": {"name": "Rad6, purified (enzyme, yeast, UniProt P06104 1-172, looked up)", "chain": "B3 chain 2"}, "B5": {"name": "PIP-like motif of Pol32 (peptide) (peptide)", "chain": "NKRLKKQGTLESFFKRKAK", "modifications": "not fully specified"}, "B6": {"name": "PCNA, purified (natural protein, yeast, UniProt P15873 1-258, looked up)", "chain": "MLEAKFEEASLFKRIIDGFKDCVQLVNFQCKEDGIIAQAVDDSRVLLVSLEIGVEAFQEYRCDHPVTLGMDLTSLSKILRCGNNTDTLTLIADNTPDSIILLFEDTKKDRIAEYSLKLMDIDADFLKIEELQYDSTLSLPSSEFSKIVRDLSQLSDSINIMITKETIKFVADGDIGSGSVIIKPFVDMEHPETSIKLEMDQPVDLTFGAKYLLDIIKGSSLSDRVGIRLSSEAPALFQFDLKSGFLQFFLAPKFNDEE"}}, "assay_in_all_cases": "BLI", "key": {"[1]": {"target": "N-terminally biotinylated peptide containing the R6BD of Rad18 (yeast)"}, "[2]": {"target": "N-terminally biotinylated peptide containing the R6BD of Rad18 (yeast)", "remark": "listed apart in the source"}, "PCNA, purified": {"target": "B6"}, "[3]": {"target": "B3"}, "Rad6, purified": {"target": "B4"}, "[4]": {"target": "B2"}}, "note": "Where “and” joins values, the source holds several entries; their conditions need not be identical. Equal values may be shown once. Read-outs that look alike come from different tables or passages of the source. No end group written: not given here. *: point of attachment. Biotin = O=C1N[C@H]2[C@H](CS[C@H]2CCCCC(=O)*)N1; Ahx = NCCCCCC(=O)O"}
{"molecule": "Rad6, purified (from UniProt P06104 1-172) (enzyme)", "values": [{"measurement": "Kd", "setting": "[1]", "value": 2800, "unit": "nM"}, {"measurement": "Kd", "setting": "[2]", "value": 2500, "unit": "nM"}]}
{"molecule": "B1", "values": [{"measurement": "Kd", "setting": "PCNA, purified", "value": "12000 nM and 13000 nM"}, {"measurement": "koff", "setting": "PCNA, purified", "value": 0.3, "unit": "s⁻¹"}, {"measurement": "Kd", "setting": "[3]", "value": "3700 ± 500", "unit": "nM"}, {"measurement": "koff", "setting": "[3]", "value": 0.13, "unit": "s⁻¹"}, {"measurement": "koff", "setting": "Rad6, purified", "value": 0.6, "unit": "s⁻¹"}]}
{"molecule": "B2", "values": [{"measurement": "Kd", "setting": "PCNA, purified", "value": "7.2 ± 2.4", "unit": "nM"}, {"measurement": "koff", "setting": "PCNA, purified", "value": 0.0054, "unit": "s⁻¹"}, {"measurement": "Kd", "setting": "[3]", "value": "1200 ± 100", "unit": "nM"}, {"measurement": "koff", "setting": "[3]", "value": 0.0008, "unit": "s⁻¹"}, {"measurement": "Kd", "setting": "Rad6, purified", "value": "2300 ± 400", "unit": "nM"}, {"measurement": "koff", "setting": "Rad6, purified", "value": 0.02, "unit": "s⁻¹"}]}
{"molecule": "B3", "values": [{"measurement": "dwell time", "setting": "[4]", "value": 1300, "unit": "s"}]}
{"molecule": "B4", "values": [{"measurement": "dwell time", "setting": "[4]", "value": 50, "unit": "s"}]}
{"molecule": "B5", "values": [{"measurement": "Kd", "setting": "Rad6, purified", "value": 600, "unit": "nM"}]}
{"molecule": "B6", "values": [{"measurement": "dwell time", "setting": "[4]", "value": 190, "unit": "s"}]}
